By EC50 is commonly meant the concentration at which the effect is half-maximal. In general, Kd refers to the equilibrium constant for the complex coming apart. A higher Kd goes with a looser complex. One may read the koff as a measure of how fast the partners let go of each other.

In experiment [1] the target is T1, mouse CD39 on CHO-K1 cells (mouse, UniProt P55772 1-510).
T1 construct: whole, on cells; also called CHOK1-muCD39
T1 sequence (looked up): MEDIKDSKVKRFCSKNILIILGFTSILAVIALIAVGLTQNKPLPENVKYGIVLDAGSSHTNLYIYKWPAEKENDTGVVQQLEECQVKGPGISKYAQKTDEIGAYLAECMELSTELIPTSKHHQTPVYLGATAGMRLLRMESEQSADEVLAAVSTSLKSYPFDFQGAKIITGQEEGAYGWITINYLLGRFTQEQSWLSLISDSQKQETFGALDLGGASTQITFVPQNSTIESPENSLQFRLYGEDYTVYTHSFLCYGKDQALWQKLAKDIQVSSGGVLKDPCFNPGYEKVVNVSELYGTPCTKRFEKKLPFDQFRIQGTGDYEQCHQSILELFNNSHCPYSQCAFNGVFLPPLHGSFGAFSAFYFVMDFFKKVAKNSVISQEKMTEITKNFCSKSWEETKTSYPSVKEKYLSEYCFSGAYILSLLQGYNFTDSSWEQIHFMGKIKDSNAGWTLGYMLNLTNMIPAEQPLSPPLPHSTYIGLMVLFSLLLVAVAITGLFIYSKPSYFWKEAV
In words: FACS on CHO-K1-mouse CD39 cells. On the procedure:
The ability of the purified antibodies to bind to cell membrane human CD39, cynomolgus monkey CD39, or mouse CD39 was determined by FACS analysis. CHO-K1 cells stably transfected to overexpress human CD39, cynomolgus monkey CD39, or mouse CD39 (CHO-K1-huCD39 cells, CHO-K1-cyCD39 cells, and CHOK1-muCD39 cells) were generated for use in this assay. Briefly, SK-MEL-28 melanoma cells (ATCC) or CD39 overexpressing stable CHO cell lines were resuspended in PBS containing 2% FBS (FACS buffer) and seeded at 1-5×10⁵ cells/well into U-bottomed plates. Anti-CD39 mAbs or isotype control antibodies diluted in FACS buffer were added to the wells and incubated for 1 hour at 4° C. After washing with FACS buffer, 1:1000 diluted Fluorescence-labeled secondary antibody (Life Technologies/ThermoFisher Scientific) were added and incubated for 30 min. at 4° C. Unbound secondary mAb was removed by washing with FACS buffer three times, and the samples were then read on a FACS instrument. The data were processed by GraphPad software.

A further experiment has as its target T2, muCD39-ECD-His (mouse, UniProt P55772 38-477).
T2 construct: also called C-terminally hexahistidine-tagged murine CD39 extracellular domain
T2 chain: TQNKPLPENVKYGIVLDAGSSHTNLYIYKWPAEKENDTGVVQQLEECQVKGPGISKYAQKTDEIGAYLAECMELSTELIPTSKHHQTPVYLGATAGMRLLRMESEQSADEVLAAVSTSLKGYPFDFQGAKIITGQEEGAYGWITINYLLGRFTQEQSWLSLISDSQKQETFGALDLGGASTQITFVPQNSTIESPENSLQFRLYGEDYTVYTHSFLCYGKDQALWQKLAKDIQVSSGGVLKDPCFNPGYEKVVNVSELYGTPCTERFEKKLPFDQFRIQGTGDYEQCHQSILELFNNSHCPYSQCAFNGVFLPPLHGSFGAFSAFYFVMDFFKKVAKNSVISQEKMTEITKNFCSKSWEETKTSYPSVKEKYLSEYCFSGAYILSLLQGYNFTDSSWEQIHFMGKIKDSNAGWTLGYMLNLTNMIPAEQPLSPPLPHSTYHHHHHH
In words: SPR (Biacore T200), antibody captured, antigen in solution. On the procedure:
The binding kinetics of purified antibodies was determined by surface plasmon resonance-based measurements using a Biacore T200 instrument (GE Healthcare). Briefly, goat anti-mouse IgG Fc polyclonal antibody (Genway) was directly immobilized across a biosensor chip, and antibody samples were injected over reaction matrices at a flow rate of 5 μl/min. The association and dissociation rate constants, kₒₙ (M⁻¹s⁻¹) and koff(s⁻¹), respectively, were determined by making kinetic binding measurements of anti-CD39 antibody capture at five different concentrations of a recombinant human or mouse CD39 target protein (huCD39-ECD-His or muCD39-ECD-His). The equilibrium dissociation constant KD (M) of the reaction between antibodies and related target proteins was then calculated from the kinetic rate constants using the formula: KD=koff/kₒₙ. Binding affinities for murine anti-human CD39 antibodies mAb635 and mAb638 are shown in Table 9; binding affinity for rat anti-mouse CD39 antibody mAb605 is shown in Table 10.
Background: In SPR one partner is held on a chip, and binding of the other changes the refractive index at the surface.

For experiment [2], the target named is T3, mouse CD39 protein (recombinant) (mouse, UniProt P55772 38-478, limits assumed).
T3 construct: also called muCD39; recombinant purified mouse CD39 protein
T3 sequence (looked up): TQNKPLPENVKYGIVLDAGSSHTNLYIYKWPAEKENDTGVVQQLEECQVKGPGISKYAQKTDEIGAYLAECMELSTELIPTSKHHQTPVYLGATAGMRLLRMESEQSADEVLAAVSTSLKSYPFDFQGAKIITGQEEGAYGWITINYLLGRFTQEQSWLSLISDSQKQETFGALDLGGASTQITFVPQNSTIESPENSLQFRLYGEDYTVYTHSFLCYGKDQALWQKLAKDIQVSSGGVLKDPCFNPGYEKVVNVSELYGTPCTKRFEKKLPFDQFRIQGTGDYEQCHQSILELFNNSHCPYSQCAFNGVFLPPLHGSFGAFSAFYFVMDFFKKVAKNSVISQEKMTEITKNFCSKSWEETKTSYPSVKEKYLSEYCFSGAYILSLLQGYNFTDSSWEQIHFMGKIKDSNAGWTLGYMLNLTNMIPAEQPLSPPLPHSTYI
In words: ELISA on coated mouse CD39 protein. On the procedure: To determine if anti-CD39 mAbs bind to human CD39, ELISA plates were incubated overnight at 4° C. with human CD39 protein or mouse CD39 protein diluted in PBS, pH7.4 buffer at 1 μg/ml. Plates were washed four times in washing buffer (PBS containing 0.05% Tween 20), and blocked for 1 hour at 37° C. with 200 μl per well blocking buffer (1% BSA in PBS containing 0.05% Tween 20). After blocking buffer was removed, hybridoma supernatant or diluted purified Abs were added to the wells at 100 μl per well and incubated at 37° C. for 1 hour. The wells were washed four times with washing buffer, and anti-mouse HRP (for mouse anti-human CD39 Ab characterization) or anti-rat HRP (for rat anti-mouse CD39 Ab characterization) (Sigma) were 1:5000 diluted and added to the wells at 100 μl per well. The plates were incubated for 1 hour at 37° C. and washed four times in washing buffer. 100 μl of tetramethylbenzidine (TMB) chromogenic solution were added per well. Following color development, the reaction was stopped with 1N HCl, and absorbance at 450 nm was measured. The data were proceeded by GraphPad software.
(In general: ELISA stands for enzyme-linked immunosorbent assay.)

B1: mAb605 (antibody, V domains shown)
VH: EVQLVESGGGLVQPGRSLKLSCAASGFTFSDNYLAWVRQAPEKGLEWVASISFEGISTYYGDSVKGRFTISKDNARRTLYLQMNSLRSEDTATYYCARRSYGSRAMDAWGQGTSVTVSS
VL: DVVMTQTPVSLPVGLGGQASISCRSSQSLVHSNGNTYLSWYLKRPGQSPQLLIYRVSSRFSGVPDRFSGSGSGTDFTLKISKVVPGDLGHYYCLQTTQYPYTFGAGTKLELK
notes: rat anti-mouse CD39 hybridoma mAb, IgG2a, κ
Consider B1, for which the EC50 in experiment [1] was found to be 2070 pM. For the same molecule, in the experiment with muCD39-ECD-His, binding was characterised by a dissociation constant (Kd) of 389 pM and the koff came to 0.000109 s⁻¹. Also, the EC50 in experiment [2] stood at 90 pM.

The values are drawn from US20220389111A1 (SHANGHAI EPIMAB BIOTHERAPEUTICS, published 2022).
